Measurements: US20060194720A1 (SANWA KAGAKU KENKYUSHO, published 2006)
Where no end group is shown, it is not given here.

What follows are binders tested against human GLP-1 receptor (human, UniProt P43220 24-463) (assay: cell-based or functional assay).
For HSEGTFTSDVSSYLEGQAAKEFIAWLVKGR-NH2 [[Ser^8]-GLP-1 (7-35)-Arg-NH2], the “Cyclic AMP-producing activity, relative to naturally occurring GLP-1 (=100%), at 1 × 10^-10 M” value was 111%, the “Cyclic AMP-producing activity, relative to naturally occurring GLP-1 (=100%), at 1 × 10^-11 M” value was 97.9% and the “Cyclic AMP-producing activity, relative to naturally occurring GLP-1 (=100%), at × 10^-9 M” value was 83.6%. In the case of HSEGTFTSDVSSYLEGQAAKEFIAWLVKGRRR-NH2 [[Ser^8]-GLP-1 (7-35)-Arg-Arg-Arg-NH2], the “Cyclic AMP-producing activity, relative to naturally occurring GLP-1 (=100%), at 1 × 10^-10 M” value is reported as 95.5%, the “Cyclic AMP-producing activity, relative to naturally occurring GLP-1 (=100%), at 1 × 10^-11 M” value is reported as 56.4% and the “Cyclic AMP-producing activity, relative to naturally occurring GLP-1 (=100%), at × 10^-9 M” value is reported as 91.2%. HSEGTFTSDVSSYLEGQAAKEFIAWLVKGRRRR-NH2 [[Ser^8]-GLP-1 (7-35)-Arg-Arg-Arg-Arg-NH2] was tested, and the “Cyclic AMP-producing activity, relative to naturally occurring GLP-1 (=100%), at 1 × 10^-10 M” value was 75.6%, the “Cyclic AMP-producing activity, relative to naturally occurring GLP-1 (=100%), at 1 × 10^-11 M” value was -17% and the “Cyclic AMP-producing activity, relative to naturally occurring GLP-1 (=100%), at × 10^-9 M” value was 102%. With HSEGTFTSDVSSYLEGQAAKEFIAWLVKGRRRRR-NH2 [[Ser^8]-GLP-1 (7-35)-Arg-Arg-Arg-Arg-Arg-NH2] the “Cyclic AMP-producing activity, relative to naturally occurring GLP-1 (=100%), at 1 × 10^-10 M” value was 64.7%, the “Cyclic AMP-producing activity, relative to naturally occurring GLP-1 (=100%), at 1 × 10^-11 M” value was 34% and the “Cyclic AMP-producing activity, relative to naturally occurring GLP-1 (=100%), at × 10^-9 M” value was 106%. With HSEGTFTSDVSSYLEGQAAKEFIAWLVKGRRRRRR-NH2 [[Ser^8]-GLP-1 (7-35)-Arg-Arg-Arg-Arg-Arg-Arg-NH2] the “Cyclic AMP-producing activity, relative to naturally occurring GLP-1 (=100%), at 1 × 10^-10 M” value was 48.6%, the “Cyclic AMP-producing activity, relative to naturally occurring GLP-1 (=100%), at 1 × 10^-11 M” value was 54.3% and the “Cyclic AMP-producing activity, relative to naturally occurring GLP-1 (=100%), at × 10^-9 M” value was 75.6%. For HSEGTFTSDVSSYLEGQAAKEFIAWLVKGRRRRRRR-NH2 [[Ser^8]-GLP-1 (7-35)-Arg-Arg-Arg-Arg-Arg-Arg-Arg-NH2], the “Cyclic AMP-producing activity, relative to naturally occurring GLP-1 (=100%), at 1 × 10^-10 M” value was 81.1%, the “Cyclic AMP-producing activity, relative to naturally occurring GLP-1 (=100%), at 1 × 10^-11 M” value was 64.9% and the “Cyclic AMP-producing activity, relative to naturally occurring GLP-1 (=100%), at × 10^-9 M” value was 80.6%. HSEGTFTSDVSSYLEGQAAKEFIAWLVKGRRRRRRRRR-NH2 [[Ser^8]-GLP-1 (7-35)-Arg-Arg-Arg-Arg-Arg-Arg-Arg-Arg-Arg-NH2] was tested, and the “Cyclic AMP-producing activity, relative to naturally occurring GLP-1 (=100%), at 1 × 10^-10 M” value was 87.4%, the “Cyclic AMP-producing activity, relative to naturally occurring GLP-1 (=100%), at 1 × 10^-11 M” value was 74.5% and the “Cyclic AMP-producing activity, relative to naturally occurring GLP-1 (=100%), at × 10^-9 M” value was 95.9%. In the case of HSEGTFTSDVSSYLEGQAAKEFIAWLVKGKR-NH2 [[Ser^8]-GLP-1 (7-35)-Lys-Arg-NH2], the “Cyclic AMP-producing activity, relative to naturally occurring GLP-1 (=100%), at 1 × 10^-10 M” value is reported as 113%, the “Cyclic AMP-producing activity, relative to naturally occurring GLP-1 (=100%), at 1 × 10^-11 M” value is reported as 100% and the “Cyclic AMP-producing activity, relative to naturally occurring GLP-1 (=100%), at × 10^-9 M” value is reported as 80.5%. For HSEGTFTSDVSSYLEGQAAKEFIAWLVKGKKR-NH2 [[Ser^8]-GLP-1 (7-35)-Lys-Lys-Arg-NH2], the “Cyclic AMP-producing activity, relative to naturally occurring GLP-1 (=100%), at 1 × 10^-10 M” value was 88.9%, the “Cyclic AMP-producing activity, relative to naturally occurring GLP-1 (=100%), at 1 × 10^-11 M” value was 36.2% and the “Cyclic AMP-producing activity, relative to naturally occurring GLP-1 (=100%), at × 10^-9 M” value was 81.6%. HSEGTFTSDVSSYLEGQAAKEFIAWLVKGKKKR-NH2 [[Ser^8]-GLP-1 (7-35)-Lys-Lys-Lys-Arg-NH2] was tested, and the “Cyclic AMP-producing activity, relative to naturally occurring GLP-1 (=100%), at 1 × 10^-10 M” value was 96.6%, the “Cyclic AMP-producing activity, relative to naturally occurring GLP-1 (=100%), at 1 × 10^-11 M” value was 45% and the “Cyclic AMP-producing activity, relative to naturally occurring GLP-1 (=100%), at × 10^-9 M” value was 86.7%. HSEGTFTSDVSSYLEGQAAKEFIAWLVKGKKKKKR-NH2 [[Ser^8]-GLP-1 (7-35)-Lys-Lys-Lys-Lys-Lys-Arg-NH2] was tested, and the “Cyclic AMP-producing activity, relative to naturally occurring GLP-1 (=100%), at 1 × 10^-10 M” value was 55.3%, the “Cyclic AMP-producing activity, relative to naturally occurring GLP-1 (=100%), at 1 × 10^-11 M” value was 7.9% and the “Cyclic AMP-producing activity, relative to naturally occurring GLP-1 (=100%), at × 10^-9 M” value was 63.4%. With HSEGTFTSDVSSYLEGQAAKEFIAWLVKGKKKKKKKR-NH2 [[Ser^8]-GLP-1 (7-35)-Lys-Lys-Lys-Lys-Lys-Lys-Lys-Arg-NH2] the “Cyclic AMP-producing activity, relative to naturally occurring GLP-1 (=100%), at 1 × 10^-10 M” value was 55.6%, the “Cyclic AMP-producing activity, relative to naturally occurring GLP-1 (=100%), at 1 × 10^-11 M” value was 8.8% and the “Cyclic AMP-producing activity, relative to naturally occurring GLP-1 (=100%), at × 10^-9 M” value was 92.6%. In the case of HSEGTFTSDVSSYLEGQAAKEFIAWLVKGKKKKKKKKKKR-NH2 [[Ser^8]-GLP-1 (7-35)-Lys-Lys-Lys-Lys-Lys-Lys-Lys-Lys-Lys-Lys-Arg-NH2], the “Cyclic AMP-producing activity, relative to naturally occurring GLP-1 (=100%), at 1 × 10^-10 M” value is reported as 20.8%, the “Cyclic AMP-producing activity, relative to naturally occurring GLP-1 (=100%), at 1 × 10^-11 M” value is reported as 7.5% and the “Cyclic AMP-producing activity, relative to naturally occurring GLP-1 (=100%), at × 10^-9 M” value is reported as 55.4%. For HSEGTFTSDVSSYLEGQAAKEFIAWLVKGRKK-NH2 [[Ser^8]-GLP-1 (7-35)-Arg-Lys-Lys-NH2], the “Cyclic AMP-producing activity, relative to naturally occurring GLP-1 (=100%), at 1 × 10^-10 M” value was 104%, the “Cyclic AMP-producing activity, relative to naturally occurring GLP-1 (=100%), at 1 × 10^-11 M” value was 53.2% and the “Cyclic AMP-producing activity, relative to naturally occurring GLP-1 (=100%), at × 10^-9 M” value was 88.8%.
